# In the nanobody polyreactivity screen of Harvey et al. (2022):
# Experiment: yeast display, Sf9 membrane polyspecificity reagent, FACS + sequencing; frameworks hold sequencing errors
# Method in brief: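 Synthetic nanobody libraries on Saccharomyces cerevisiae BJ5465 were galactose-induced for 36–48 hours, stained 1 hour at 4 °C with 10% biotinylated, detergent-solubilized Sf9 membrane reagent and enriched on streptavidin microbeads. FACS then separated cells into low and high (top ~1%) gates by anti-HA (expression) and streptavidin (reagent binding) fluorescence. Genes were colony-PCR amplified, MiSeq 2 × 250 sequenced and CDR-length filtered. A clone's polyreactivity label is that of its gate of origin.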
row,Sequence,polyreactivity (PSR sort gate)
1,QVQLVESGGGLVQAGGSLRLSCAASGSTFKWYAMGWYRQAPGKERELVAAISSRGGSTYYADSVKGRFTISRDNAKNTVYLQMNSLKPEDTAVYYCNALVRPQWSYNDFDYWGQGTQVTVSS,high polyreactivity
2,QVQLVESGGGLVQAGGSLRLSCAASGFTFYGYAMGWYRQAPGKERELVAAISSSGGRTYYADSVKGRFTISRDNAKNTVYLQMNSLKPEDTAVYYCAADYTSRDYYYWGQGTHVTVSS,high polyreactivity
3,QVQLVESGGGLVQAGGSLRLSCAASGSIFGPYAMGWYRQAPGKERELVAAITIGGDNTYYADSVKGRFTISRDNAKNTVYLQMNSLKPEDTAVYYCAAKYYCGKPHYYEYYYWGQGTQVTVSS,low polyreactivity
4,QVQLVESGGGLVQAGGSLSLSCAASGSIFPRYTMGSYRQAPGKERELVAAISRSGGSTYYADSVKGRFTISRDNAKNTVYLQMNSLKPADTAVYYCDKSRPSKYDYWGQGTQVTVSS,high polyreactivity
5,QVQLVESGGGLVQAGASLRLSCAASGSTFLLNAMGWYRQAPGKERELVAAITSSGGTNYADSVKGRFTISRDNAKNTVYLQMNSLKPEDTAVYYCNTRYSPGYQGSEVDYWGQGTQVTVSS,low polyreactivity
6,QVQLVESGGGLVQAGGSLRLSCAASGYTFFVYAMGWYRQAPGKERELVAAIDLNGGSTSYADSVKGRFTISRDNAKNTVYLQMNSLKPEDTAVYYCAAYSWVGYDYDYWGQGTQVTVSS,low polyreactivity
7,QVQLVESGGGLVQAGGSLRLSCAASGLTFSDYTMGWYRQAPGKERELVAAISDSTGSTYYADSVKGRFTMSRDNAKNTVYLQMNSLKPEDTAVYNCIAYGYYHRLYSYTYGYWGQGTQVTVSS,low polyreactivity
8,QVQLVESGGGLVQAGGSLRLSCAASGRIFQPYAMGWYRPAPGKDRELVAAITRRAGSTYYADSVKGRFTISRDNAKYTVYLQMNSLKPEDTAVYYCAARGLYWAYEMEYWGQGTQVTVSS,low polyreactivity
9,QVQLVESGGGLVQAGGSLRLSCAASGRTFVKYAMGWYRQAPGKERELVAAISWSGGSTYYADSVKGRFTISRDKAKNTVYLQMNSLKPEDTAVYYCAAPSSRGQGRNFDYWGQGTQVTVSS,high polyreactivity
10,QVQLVESGGGLVQAGGSLRLSCAASGFIFRQYAMGWYRQAPGKERELVAAISTGGGRTYYADSVKGRFTISRDNAKNTVYLQMNSLKPEDTAVYYCAVYYYKTYDYWGQGTQVTVSS,high polyreactivity
11,QVQLVESGGGLVQAGGSLRLSCAASGTFVYYAMGWYRQAPGKERELVAVISLNGGITYYADSVKGRFTISRDNAKNTVYLQMNSLKPEDTAVYYCNAQFYNSGWSFKYYYWGQGTQVTVSS,low polyreactivity
12,QVQLVESGGGLVQAGGSLRLSCAASGRISPKNAMGWYRQAPGKERELVATIRKIGGRTYYADSVKGRFTISRDNAKYTVYLQMNSLKPEDTAVYYCATDFAPSYYPDRFDYWGQGTQVTVSS,low polyreactivity
13,QVQLVESGGGLVQAGGSLRLSCAASGFTFGRYAMGWYRQAPGKERELVAAISWTGGSTYYADSVKGRFTISRDNAKNTVYLQMNSLKPEDTAVYYCAAVGRSKRDGYWGQGTQVTVSS,high polyreactivity
14,QVQLVESGGGLVQAGGSLRLSCAASGSTFAYNAMGWYRQAPGKERELVAAITRSGGSTYYADSVKGRFTISRDNAKNTVYLQKNSLKPEDTAVYYCNKASGGYYVTSLYAYRYYYWGQGTQVTVSS,high polyreactivity
15,QVQLVESGGGLVQAGGSLRLSCAASGRTFSFYAMGWYRQAPGNERELVASMSRSGASTYYADSVKGRFTISRDNAKNTVYLQMNSLKPEDTAVYYCAAEWGRRYIYYYWGQGTQVTVSS,high polyreactivity
16,QVQLVESGGGLVQAGGSLRLSCAASGIIFSRNVMGWYRPAPGKERELVAVISGSGGSTYYADSVKGRFTISRDNAKNTVYLQMNSLKPEDSAVYYCAASYEYLWGYDYEYWGQGTQVTVSS,high polyreactivity
17,QVQLVESGGGLVQAGGSLRLICAASGFTFSYYAMGWSRQAPGKERELVAANSWSGTSTYYADSVKGRFTISRDNAKNTVYLQMNSLKPEDTAVYYCAAGYSASRKVDYRGQGTQVTVSS,high polyreactivity
18,QVQLVESGGGIVQAGGSLRLSCAASGFIFDQNAMGWYRQAPGKERELVAAISKRGGSTYYADSVKGRFTISRDNAKNTVYLQMNSLKREDTAVYYCATRSWGPYYYGYNHWGQGTQVTVSS,high polyreactivity
19,QVQLVESGGGLVQAGGSLRLSCAASGSIFKSNGMGWYRQAPGKERELVAAITGSGGTTYYADSVKGRFTISRDNAKNTVYLQMNSLKPEDTAVYYCAADIYWYPTYYYWGQGTQVTVSS,low polyreactivity
20,QVQLVESGGGLVQAGGSLRLSCAASGSIFADYVMGWYRQAPGKERELVAAITRRGRTYYADSVKGRFTISRDNAKNTVYLQMNSLIPEDTAVYYCAKVASGKIDSWGQGTQVTVSS,low polyreactivity
21,QVQLQESVGGLVQAGGTQRLRCAASGNIFPTDRMGWYRQAPGKELEFVATISHGGSTNYADSVKGRFTISRDNAKNTVYLQMNSLKPEDTAVYYCAVWSLGRWRHYYWGQGTQVTVSS,low polyreactivity
22,QVQLVDSGGGLVQAGGSLRLSCAASGRTLYLYAMGWYRQAPGKKRELVAGISWSGTSTYYADSVKGRFTISRDNSKNTVYLQMNSLKPEDTAFYYCAADRLYVRYGYWGQGTQVTVSS,low polyreactivity

row,Sequence,polyreactivity (PSR sort gate)
1,QVQLQESGDGLVQAVGSLRLSCAASGYISGYYYMGWYRQAPGKERELVAGIDAFGSSTNYADCVKGRFTISRDNAKNTVYLQMNSLKPEDTAVYYCAARPDGYRLFSYWGQGTQVTVSS,low polyreactivity
2,QVQLVESGGGLVQAGGSLRLSCAASGRTFGRYAMVWSRQAPGKERELVAAITRGGGSTYYADSVKGRFTISRDNAKYTVYLQMNSLKPEDTAVYYCAARNFRSPYGYDYWGQGTQVTVSS,high polyreactivity
3,QVQLVESGGGLVQAGGSLRLSCAASGITFYKNAMGWYRQAPGKERELVAAISSGGGTTYADSVKGRFTISRDNAKNTVYLQMNSLKPEDTAVYYCAADRRYYWYNYWGLGTQVTVSS,high polyreactivity
4,QVQLVESGGGLVQAGGRLRLSCAASGFTFTNYAMGRYRQAPGKERELVAAISWNGGSTYYADSVKGRFTISRDNAKNTVYLQMNSLKPEDTAVYYCNAYDYQYFYGYEYDYWGQGTQVTVSS,high polyreactivity
5,QVQLVESGGGLVQAGGSLRLSCAASGRIFRRNTMGWYRQAPGKERELVAAITSSGGSTYADSVKGRFTISRDNAKNTVYLQMKSLKPEDTAVYYCATYVAYHRGYRTYDHWGQGTQVTVSS,low polyreactivity
6,QVQLVESGGGLVQAGGSLRLSCSASGLIFRYYAMGWYRQAPGKEREFVAAISGRGASTYYADSVKGRFTISRDNSKNTVYLQMNSLKPEDTAVYYCATYFPSAVVAFHMEYWGQGTQVTVSS,low polyreactivity
7,PVQLVESGGGLVQAGGSLRLSCAASGFTFTRYVMGWYRQAPGKERELVAAISGSGGSTNYADSVKGRFTISRDNAKNTVSLQMISLKPEDTAVYYCADRFVGSRYRFDYWGQGTQVTVSS,high polyreactivity
8,QVQLVESGGGLVQAGGSLRLSCAASGRIFYLNDMGWYRQAPGKERELVATITSTGGSTYYADSVKGRFTISRDNAKNTVYLQMNSLKPEDTAVYYCAAGGWRAYSYTARYDYWGQGTQVTVSS,low polyreactivity
9,QVQLVESGGGLVQAGGSLRLSCAASGSIFDIYAMGWYRQAPGKERELVADITISGGSTYYADSVKGRFTISRDNAKNTVYLQMNSLKPEDTAVYYCKKAYLGYRYDLYDYWGQGTQVTVSS,low polyreactivity
10,QVQLVESGGGLVQAGGSLRLSCAASGSIFYWNAMGWYRQAPGKDREFVAAISRSGGSTYYADSVKGRFTISRDNGKNTVYLQMYSLKPEDTAVYFCAADVFYFTYDYWGQCTQVTVSS,low polyreactivity
11,QVQLVESGGGLVQAGGSLRLTFAASGINLYDNVMGWYRTAPGKERELVAAISSSGTTKYYADSVKGRFTISRDYAKNTFYLQMNSLNPEDTAVYYCAADGITWYAIAYYYWGQGTQVTVSS,high polyreactivity
12,QGQLVESGGGLVQAGGSLRLSCAASGRIFRGYAMGWYRQGPGNEREWVAAFSRRGGSTYYADSVKGRFTISRDNAKNTVYLQMNSLKPVDTAVYYCNADGVHYVAYAGGYWGQGTQVTVSS,high polyreactivity
13,QVQLVESGGGLVQAGGSLRLSCAASGRISYANAMGWYRQAPGKERELVASITYSAGSTYADSVKGRFTISRDNAKYTVYLQMNSLKPEDSAVYYCNAYHVIYARESDYWGQCTQVTVSS,low polyreactivity
14,QVQLVESGGGLVQAGGSLRLSCAASGFIFYYYAMGWYRQAPGKERELFAAISKSGGSTYYADSVKGRFTISRDHAKNTVYLEMNSLKPEDTAVYYCAGVVTTWPYYGFGYWGQGTQVTVSS,high polyreactivity
15,QVQLVESGGGLVQAGGSLRLSCAASGITFYAYVMGWYRQAPGKERELVAAISGGGSTYYADSVKGRFTISRDNAKNTVYLQMNSLKPEDTAVYYCNAELSFWDLGYDYWGQGTQVTVSS,low polyreactivity
16,QVQLVESGGGLVQAGGSLRLSCAASGSILQSYAMGWYRQAPGKERELVAAISGSGGSTYYADSVKGRFTISRDNAKNTVYLQMNSLKPEDTAVYYCAKGPLYRTSRGEFGYWGQGTQVTVSS,low polyreactivity
17,QVQLVESGGGLVQAGGSLRLSCAPSGYIFYDNAMGWYRQAPGKEREFVAAITFSGDSTDYADSVKGRFTISRDNAKNTVYLQMNSLKPEDTAVYYFNTVYYRYYIELYFSSYDYWGQGTQVTVSS,high polyreactivity
18,QVQLVESGGGLVQAGGSLRLSCAASGITFSGNAMGWYRQAPGKERELVAAISGRGGSTYYADSVKGRFTISRDNAKNTVYLQMNSLKPEDTAVYYCAARVPSPYVATYYYWGQGTQVTVSS,high polyreactivity
19,QVQLQESGGGLVQAGGSLRLSCAASGDILEADDMGWYRQAPGKERELVASITDGGSTNCADSMKGRSTICRDNAKITVYVQMNRLKLEDTAVYYCAGIAYPDVPTYFDYDSDYFYWGQGTLVTVSS,high polyreactivity
20,QVQLVESGGGLVQEGGSLRLSCAASGILVYNAMGWYRQAPGTERELVAAISARGGRTYYADSVKGRFTISRDNAQNTDSLQMNSLKPEDTAVYYCASRSSKSRTYDYWGQGTQVTVSS,high polyreactivity
21,QVQLVESGGGLVQAGGSLRLSCAASGFTFGTYAMGWYRQAPGKERELVARITSGGRTNYADSVKGRFTISRDNAKNTVYLQMNSLKPEDTAVYYCNAVNGYYWGSRFDYWGQGTQVTVSS,high polyreactivity
